Test results reported in patent publication US20160264649A1.

How the values were obtained:
Experiment in all cases: cell-based or functional assay
[1] = molecular target: HIV-1 Env of isolate MGRM-Chronic-B-004 (subtype B) (HIV-1)
[2] = molecular target: HIV-1 Env of isolate 92 BR 020 (subtype B) (HIV-1)
[3] = molecular target: HIV-1 Env of isolate MG RM-C-020 (subtype C) (HIV-1)
[4] = molecular target: HIV-1 Env of isolate THR0.18 (subtype B) (HIV-1)
[5] = molecular target: HIV-1 Env of isolate MGRM-Chronic-B-018 (subtype B) (HIV-1)
[6] = molecular target: HIV-1 Env of isolate CAAN.A2 (subtype B) (HIV-1)
[7] = molecular target: HIV-1 Env of isolate MG RM-C-023 (subtype C) (HIV-1)
[8] = molecular target: HIV-1 92RW008 Env (HIV-1)
[9] = molecular target: HIV-1 Env of isolate APV_6 (subtype B) (HIV-1)
[10] = molecular target: HIV-1 Env of isolate SC422661.8 (subtype B) (HIV-1)
[11] = molecular target: HIV-1 Env of isolate MGRM-Chronic-B-011 (subtype B) (HIV-1)
[12] = molecular target: HIV-1 Env of isolate MG RM-C-026 (subtype C) (HIV-1)
[13] = molecular target: HIV-1 Env of isolate MGRM-Chronic-B-012 (subtype B) (HIV-1)
[14] = molecular target: HIV-1 Env of isolate 93TH305 (subtype B) (HIV-1)
[15] = molecular target: HIV-1 Env of isolate MGRM-Chronic-B-001 (subtype B) (HIV-1)
[16] = molecular target: HIV-1 Env of isolate MGRM-Chronic-B-023 (subtype B) (HIV-1)
[17] = molecular target: HIV-1 Env of isolate JRFL (subtype B) (HIV-1)
[18] = molecular target: HIV-1 Env of isolate 97ZA012 (subtype C) (HIV-1)
[19] = molecular target: HIV-1 Env of isolate SF162 (subtype B) (HIV-1) (UniProt P19550)
[20] = molecular target: HIV-1 Env of isolate MGRM-Chronic-B-024 (subtype B) (HIV-1)
[21] = molecular target: HIV-1 Env of isolate 6535.3 (subtype B) (HIV-1)
[22] = molecular target: HIV-1 Env of isolate 98IN022 (subtype C) (HIV-1)
[23] = molecular target: HIV-1 Env of isolate MG RM-C-028 (subtype C) (HIV-1)
[24] = molecular target: HIV-1 Env of isolate MGRM-Chronic-B-003 (subtype B) (HIV-1)
[25] = molecular target: HIV-1 Env of isolate PVO.4 (subtype B) (HIV-1)
[26] = molecular target: HIV-1 Env of isolate APV_17 (subtype B) (HIV-1)
[27] = molecular target: HIV-1 Env of isolate 93IN905 (subtype C) (HIV-1)
[28] = molecular target: HIV-1 Env of isolate MGRM-Chronic-B-002 (subtype B) (HIV-1)
[29] = molecular target: HIV-1 Env of isolate TRO.11 (subtype B) (HIV-1)
[30] = molecular target: HIV-1 Env of isolate MGRM-Chronic-B-020 (subtype B) (HIV-1)
[31] = molecular target: HIV-1 Env of isolate MG RM-C-022 (subtype C) (HIV-1)
[32] = molecular target: HIV-1 Env of isolate MG RM-C-025 (subtype C) (HIV-1)
[33] = molecular target: HIV-1 Env of isolate MGRM-Chronic-B-017 (subtype B) (HIV-1)
[34] = molecular target: HIV-1 Env of isolate VLGCB3 (subtype B) (HIV-1)
[35] = molecular target: HIV-1 Env of isolate APV_13 (subtype B) (HIV-1)
[36] = molecular target: HIV-1 Env of isolate MG RM-C-027 (subtype C) (HIV-1)
[37] = molecular target: HIV-1 Env of isolate JRCSF (subtype B) (HIV-1) (UniProt P20871)
[38] = molecular target: HIV-1 Env of isolate MG RM-C-019 (subtype C) (HIV-1)
[39] = molecular target: HIV-1 Env of isolate QH0692.42 (subtype B) (HIV-1)
[40] = molecular target: HIV-1 Env of isolate MG RM-C-024 (subtype C) (HIV-1)
[41] = molecular target: HIV-1 Env of isolate MGRM-Chronic-B-010 (subtype B) (HIV-1)
[42] = molecular target: HIV-1 Env of isolate NL43 (subtype B) (HIV-1)
[43] = molecular target: HIV-1 Env of isolate TRJ04551.58 (subtype B) (HIV-1)
[44] = molecular target: HIV-1 Env of isolate 93MW959 (subtype C) (HIV-1)
[45] = molecular target: HIV-1 Env of isolate MGRM-Chronic-B-008 (subtype B) (HIV-1)

Chain of 4980_N08 (PGT-143) (antibody) (VH): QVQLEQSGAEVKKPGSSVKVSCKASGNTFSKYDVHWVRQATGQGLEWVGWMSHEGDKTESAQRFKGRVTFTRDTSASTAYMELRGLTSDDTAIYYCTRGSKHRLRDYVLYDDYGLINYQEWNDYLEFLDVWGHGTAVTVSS
Chain of 4980_N08 (PGT-143) (antibody) (VL): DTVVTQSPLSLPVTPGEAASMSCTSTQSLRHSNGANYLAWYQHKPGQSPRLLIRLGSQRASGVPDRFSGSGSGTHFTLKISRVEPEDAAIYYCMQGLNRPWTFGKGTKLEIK
Chain of 4970_K22 (PGT-144) (antibody) (VH): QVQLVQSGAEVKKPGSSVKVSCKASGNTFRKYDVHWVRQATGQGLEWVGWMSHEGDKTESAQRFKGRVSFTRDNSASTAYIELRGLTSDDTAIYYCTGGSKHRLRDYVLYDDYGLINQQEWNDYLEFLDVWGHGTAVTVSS
Chain of 4970_K22 (PGT-144) (antibody) (VL): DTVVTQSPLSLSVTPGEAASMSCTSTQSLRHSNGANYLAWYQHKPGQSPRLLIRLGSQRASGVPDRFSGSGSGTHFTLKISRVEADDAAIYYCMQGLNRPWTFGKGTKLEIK

Substance: 4970_K22 (PGT-144) (antibody)
- IC50 [1]: 9.41 mg/L
- IC50 [2]: 44 mg/L
- IC50 [3]: 1.29 mg/L
- IC50 [4]: 0.029 mg/L
- IC50 [5]: 2.4 mg/L
- IC50 [6]: > 50 mg/L
- IC50 [7]: 0.38 mg/L
- IC50 [8]: > 50 mg/L
- IC50 [9]: > 50 mg/L
- IC50 [10]: > 50 mg/L
- IC50 [11]: 5.64 mg/L
- IC50 [12]: > 50 mg/L
- IC50 [13]: > 50 mg/L
- IC50 [14]: > 50 mg/L
- IC50 [15]: > 50 mg/L
- IC50 [16]: > 50 mg/L
- IC50 [17]: > 50 mg/L
- IC50 [18]: > 50 mg/L
- IC50 [19]: > 50 mg/L
- IC50 [20]: 0.04 mg/L
- IC50 [21]: > 50 mg/L
- IC50 [22]: 0.171 mg/L
- IC50 [23]: > 50 mg/L
- IC50 [24]: 7.41 mg/L
- IC50 [25]: 0.535 mg/L
- IC50 [26]: 10.3 mg/L
- IC50 [27]: 0.132 mg/L
- IC50 [28]: > 50 mg/L
- IC50 [29]: 4.73 mg/L
- IC50 [30]: > 50 mg/L
- IC50 [31]: 2.58 mg/L
- IC50 [32]: 17.6 mg/L
- IC50 [33]: 0.712 mg/L
- IC50 [34]: > 50 mg/L
- IC50 [35]: > 50 mg/L
- IC50 [36]: > 50 mg/L
- IC50 [37]: 0.149 mg/L
- IC50 [38]: 0.513 mg/L
- IC50 [39]: > 50 mg/L
- IC50 [40]: 2.06 mg/L
- IC50 [41]: > 50 mg/L
- IC50 [42]: > 50 mg/L
- IC50 [43]: > 50 mg/L
- IC50 [44]: 0.332 mg/L
- IC50 [45]: > 50 mg/L

Substance: 4980_N08 (PGT-143) (antibody)
- IC50 [1]: 0.395 mg/L
- IC50 [2]: 25.9 mg/L
- IC50 [3]: 0.797 mg/L
- IC50 [4]: 0.016 mg/L
- IC50 [5]: 0.377 mg/L
- IC50 [6]: > 50 mg/L
- IC50 [7]: 0.148 mg/L
- IC50 [8]: 0.385 mg/L
- IC50 [9]: 14 mg/L
- IC50 [10]: 2.02 mg/L
- IC50 [11]: 1.56 mg/L
- IC50 [12]: > 50 mg/L
- IC50 [13]: > 50 mg/L
- IC50 [14]: 17.3 mg/L
- IC50 [15]: > 50 mg/L
- IC50 [16]: 0.236 mg/L
- IC50 [17]: > 50 mg/L
- IC50 [18]: > 50 mg/L
- IC50 [19]: > 50 mg/L
- IC50 [20]: 0.01 mg/L
- IC50 [21]: > 50 mg/L
- IC50 [22]: 0.001 mg/L
- IC50 [23]: 12.4 mg/L
- IC50 [24]: 0.854 mg/L
- IC50 [25]: 0.162 mg/L
- IC50 [26]: 1.11 mg/L
- IC50 [27]: 0.002 mg/L
- IC50 [28]: > 50 mg/L
- IC50 [29]: 0.219 mg/L
- IC50 [30]: > 50 mg/L
- IC50 [31]: 0.103 mg/L
- IC50 [32]: 0.336 mg/L
- IC50 [33]: 0.145 mg/L
- IC50 [34]: > 50 mg/L
- IC50 [35]: > 50 mg/L
- IC50 [36]: 0.598 mg/L
- IC50 [37]: 0.007 mg/L
- IC50 [38]: 0.004 mg/L
- IC50 [39]: > 50 mg/L
- IC50 [40]: 0.05 mg/L
- IC50 [41]: > 50 mg/L
- IC50 [42]: > 50 mg/L
- IC50 [43]: > 50 mg/L
- IC50 [44]: 0.002 mg/L
- IC50 [45]: > 50 mg/L
